Measurements reported in IntAct's records for PubMed 16600184.

B1: Phospholipid-transporting ATPase accessory subunit LEM3 (Saccharomyces cerevisiae), P42838 (parent)
chain: MVNFDLGQVGEVFRRKDKGAIVSGDNPEEEEDVDASEFEEDEVKPVRTKNRRPKEDAFTQQRLAAINPVLTPRTVLPLYLLIAVVFVIVGGCILAQNSKVDEVTIYYQDCMTNATSSWSDIPSEHWQFVFHKYKTYNTAPQWRFVDDESDDFTKQRGTCQIRFTTPSDMKNNVYLNYVLEKFAANHRRYVLSFSEDQIRGEDASYETVHDATGINCKPLSKNADGKIYYPCGLIANSMFNDTFPLQLTNVGDTSNNYSLTNKGINWESDKKRYKKTKYNYTQIAPPPYWEKMYPDGYNETNIPDIQDWEEFQNWMRPGAFDKITKLIRINKNDTLPAGEYQLDIGLHWPVLEFNGKKGIYLTHGSHLGGRNPFLGIVYLIGGCICAAMALILLTFWLFGGRKIADASSLSWNMK

Variants of: B1
Details: with atc5_yeast DNF1, P32660
Sequence of atc5_yeast DNF1, P32660 (P32660 whole entry): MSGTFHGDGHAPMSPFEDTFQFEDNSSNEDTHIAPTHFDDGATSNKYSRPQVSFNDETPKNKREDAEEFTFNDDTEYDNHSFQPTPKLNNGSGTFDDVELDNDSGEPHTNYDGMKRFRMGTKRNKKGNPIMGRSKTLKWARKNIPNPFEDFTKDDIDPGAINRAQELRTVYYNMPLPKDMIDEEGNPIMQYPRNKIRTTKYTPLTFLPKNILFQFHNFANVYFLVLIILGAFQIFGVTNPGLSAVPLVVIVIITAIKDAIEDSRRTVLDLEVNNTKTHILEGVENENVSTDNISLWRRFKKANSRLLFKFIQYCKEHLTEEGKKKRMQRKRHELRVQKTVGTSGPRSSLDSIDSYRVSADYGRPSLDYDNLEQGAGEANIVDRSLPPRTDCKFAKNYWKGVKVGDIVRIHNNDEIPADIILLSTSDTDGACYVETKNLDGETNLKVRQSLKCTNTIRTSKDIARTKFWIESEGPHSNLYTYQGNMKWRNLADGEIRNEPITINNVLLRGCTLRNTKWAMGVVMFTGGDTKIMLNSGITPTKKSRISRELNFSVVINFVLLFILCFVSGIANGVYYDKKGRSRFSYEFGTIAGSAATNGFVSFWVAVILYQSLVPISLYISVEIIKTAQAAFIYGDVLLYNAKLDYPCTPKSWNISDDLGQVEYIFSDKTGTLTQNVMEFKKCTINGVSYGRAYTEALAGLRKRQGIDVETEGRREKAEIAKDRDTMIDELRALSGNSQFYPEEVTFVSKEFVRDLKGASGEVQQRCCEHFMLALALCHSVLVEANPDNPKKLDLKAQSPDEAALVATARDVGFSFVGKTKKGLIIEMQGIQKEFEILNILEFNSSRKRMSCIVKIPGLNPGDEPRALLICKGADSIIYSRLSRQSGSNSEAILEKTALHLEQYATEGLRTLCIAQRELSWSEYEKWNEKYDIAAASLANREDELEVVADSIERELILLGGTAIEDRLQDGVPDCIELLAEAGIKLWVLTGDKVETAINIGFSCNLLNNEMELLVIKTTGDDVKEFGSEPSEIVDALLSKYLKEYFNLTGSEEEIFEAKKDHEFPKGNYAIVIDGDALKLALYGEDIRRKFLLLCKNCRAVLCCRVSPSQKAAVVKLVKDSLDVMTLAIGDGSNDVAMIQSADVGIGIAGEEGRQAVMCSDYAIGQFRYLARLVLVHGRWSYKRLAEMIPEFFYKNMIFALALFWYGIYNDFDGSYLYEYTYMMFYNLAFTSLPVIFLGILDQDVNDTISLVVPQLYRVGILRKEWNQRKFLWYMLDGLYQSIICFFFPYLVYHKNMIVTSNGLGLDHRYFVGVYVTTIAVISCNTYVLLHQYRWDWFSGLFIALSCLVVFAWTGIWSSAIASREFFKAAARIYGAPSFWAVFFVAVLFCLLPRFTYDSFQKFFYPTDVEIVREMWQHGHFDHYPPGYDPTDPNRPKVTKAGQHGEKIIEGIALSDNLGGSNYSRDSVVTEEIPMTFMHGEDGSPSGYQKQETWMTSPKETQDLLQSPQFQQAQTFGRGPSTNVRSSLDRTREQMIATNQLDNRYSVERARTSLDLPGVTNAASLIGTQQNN

Variant | effect of a mutation on the interaction
R316W | with no effect

Variants of: B1
Details: with atc4_yeast DNF2, Q12675
Sequence of atc4_yeast DNF2, Q12675 (Q12675 whole entry): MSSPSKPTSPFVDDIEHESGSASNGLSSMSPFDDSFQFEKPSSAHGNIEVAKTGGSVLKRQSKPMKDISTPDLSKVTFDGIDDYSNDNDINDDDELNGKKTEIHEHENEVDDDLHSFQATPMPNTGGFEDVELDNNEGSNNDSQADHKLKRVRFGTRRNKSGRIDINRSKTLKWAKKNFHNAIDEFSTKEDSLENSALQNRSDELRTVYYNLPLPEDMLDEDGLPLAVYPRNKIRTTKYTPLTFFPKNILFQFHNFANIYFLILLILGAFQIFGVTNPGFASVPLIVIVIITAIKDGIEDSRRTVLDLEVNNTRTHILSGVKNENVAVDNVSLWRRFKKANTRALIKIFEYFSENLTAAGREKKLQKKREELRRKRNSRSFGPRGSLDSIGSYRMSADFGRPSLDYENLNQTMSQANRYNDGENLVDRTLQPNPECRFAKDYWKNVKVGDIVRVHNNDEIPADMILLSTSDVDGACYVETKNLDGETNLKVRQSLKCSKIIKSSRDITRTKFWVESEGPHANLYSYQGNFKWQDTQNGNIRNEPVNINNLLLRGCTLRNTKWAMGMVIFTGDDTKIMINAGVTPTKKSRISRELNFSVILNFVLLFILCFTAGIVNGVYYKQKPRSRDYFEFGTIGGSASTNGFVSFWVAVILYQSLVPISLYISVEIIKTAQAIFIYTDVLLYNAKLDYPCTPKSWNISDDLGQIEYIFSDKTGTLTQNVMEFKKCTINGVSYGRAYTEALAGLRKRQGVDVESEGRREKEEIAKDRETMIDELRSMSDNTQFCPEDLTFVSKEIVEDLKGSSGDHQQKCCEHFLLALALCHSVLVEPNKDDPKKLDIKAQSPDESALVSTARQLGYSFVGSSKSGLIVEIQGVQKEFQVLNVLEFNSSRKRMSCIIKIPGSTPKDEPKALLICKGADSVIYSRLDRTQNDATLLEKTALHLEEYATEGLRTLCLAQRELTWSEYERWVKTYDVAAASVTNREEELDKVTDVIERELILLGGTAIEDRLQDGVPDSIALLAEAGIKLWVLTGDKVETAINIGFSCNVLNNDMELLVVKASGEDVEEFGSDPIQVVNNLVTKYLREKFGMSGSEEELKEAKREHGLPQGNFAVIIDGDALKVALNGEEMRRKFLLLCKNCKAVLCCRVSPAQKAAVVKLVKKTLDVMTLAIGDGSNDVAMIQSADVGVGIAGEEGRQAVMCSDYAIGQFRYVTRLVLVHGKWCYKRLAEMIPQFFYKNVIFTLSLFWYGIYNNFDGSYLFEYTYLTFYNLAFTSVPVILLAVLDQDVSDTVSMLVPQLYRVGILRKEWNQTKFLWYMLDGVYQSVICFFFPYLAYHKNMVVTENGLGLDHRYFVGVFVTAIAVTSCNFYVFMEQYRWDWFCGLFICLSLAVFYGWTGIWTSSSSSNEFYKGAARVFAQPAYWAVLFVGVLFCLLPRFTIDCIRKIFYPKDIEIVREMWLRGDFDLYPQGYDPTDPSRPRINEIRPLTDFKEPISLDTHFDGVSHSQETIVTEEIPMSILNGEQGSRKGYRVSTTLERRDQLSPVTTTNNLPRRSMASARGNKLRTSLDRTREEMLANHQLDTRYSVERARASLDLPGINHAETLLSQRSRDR

Variant | effect of a mutation on the interaction
R316W | with no effect
